Results: patent US20140242080A1 (Hoffmann-La Roche, published 2014)

How the values were obtained:
cynomolgus MCSP D3 [1] = target: T1, cynomolgus MCSP D3 (cynomolgus, UniProt Q6UVK1 1582-2224 (human entry), limits assumed); test: SPR Biacore T100, 25 C; t1/2 = ln 2/koff
T1 construct: also called Cyno MCSP; cynomolgus homologue
T1 chain: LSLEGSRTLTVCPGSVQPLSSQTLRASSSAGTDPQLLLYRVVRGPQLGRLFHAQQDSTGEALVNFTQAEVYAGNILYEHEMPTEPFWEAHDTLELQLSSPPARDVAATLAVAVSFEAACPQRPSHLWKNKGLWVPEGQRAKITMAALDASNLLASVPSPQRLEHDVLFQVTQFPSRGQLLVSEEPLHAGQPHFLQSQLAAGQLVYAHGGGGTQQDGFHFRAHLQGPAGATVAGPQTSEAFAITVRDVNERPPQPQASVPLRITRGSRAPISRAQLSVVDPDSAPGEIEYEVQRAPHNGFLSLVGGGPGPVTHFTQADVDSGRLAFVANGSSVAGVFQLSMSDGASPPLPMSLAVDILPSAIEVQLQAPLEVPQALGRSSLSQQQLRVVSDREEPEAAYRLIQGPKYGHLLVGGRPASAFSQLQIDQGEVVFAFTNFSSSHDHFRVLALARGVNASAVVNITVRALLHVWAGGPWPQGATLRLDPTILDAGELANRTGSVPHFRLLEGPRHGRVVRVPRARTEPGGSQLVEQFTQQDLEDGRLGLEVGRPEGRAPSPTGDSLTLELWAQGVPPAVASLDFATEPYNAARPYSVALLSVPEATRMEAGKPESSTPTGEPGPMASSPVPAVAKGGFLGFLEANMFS
Procedure: (§1) Capture IgG was coupled to the sensorchip surface by direct immobilization of around 7,500 resonance units (RU) at pH 5.0 using the standard amine coupling kit (Biacore, Freiburg/Germany). […] Since the interaction with murine MCSP (SEQ ID NO: 380) was expected to be weak the concentration range for this antigen was chosen between 3.9 and 500 nM. The dissociation for all interactions was monitored for 120 s. Bulk refractive index differences were corrected for by subtracting the response obtained on a reference flow cell.
(§2) Kinetic constants were derived using the Biacore T200 Evaluation Software (vAA, Biacore AB, Uppsala/Sweden), to fit rate equations for 1:1 Langmuir binding by numerical integration. […] The half-life (t_{1/2}) of the interaction was calculated using following formula: t_{1/2}=ln 2/koff.

[2] = target: T2, human CD3ε stalk-Fc (knob)-Avi/CD3δ-stalk-Fc(hole) (human); test: SPR Biacore T100, 25 C; t1/2 = ln 2/koff
T2 construct: also called Human CD3ε/CD3δ; recombinant CD3ε/CD3δ
Procedure: as §1, §2

[3] = target: T3, hu-MCSP(D3 domain)-avi-his (human, UniProt Q6UVK1 1582-2224); test: SPR Biacore T100, 25 C; t1/2 = ln 2/koff
T3 construct: Recombinant D3 domain with avi and his tags; also called human MCSP(D3 domain)-avi-his; Human MCSP D3
T3 sequence: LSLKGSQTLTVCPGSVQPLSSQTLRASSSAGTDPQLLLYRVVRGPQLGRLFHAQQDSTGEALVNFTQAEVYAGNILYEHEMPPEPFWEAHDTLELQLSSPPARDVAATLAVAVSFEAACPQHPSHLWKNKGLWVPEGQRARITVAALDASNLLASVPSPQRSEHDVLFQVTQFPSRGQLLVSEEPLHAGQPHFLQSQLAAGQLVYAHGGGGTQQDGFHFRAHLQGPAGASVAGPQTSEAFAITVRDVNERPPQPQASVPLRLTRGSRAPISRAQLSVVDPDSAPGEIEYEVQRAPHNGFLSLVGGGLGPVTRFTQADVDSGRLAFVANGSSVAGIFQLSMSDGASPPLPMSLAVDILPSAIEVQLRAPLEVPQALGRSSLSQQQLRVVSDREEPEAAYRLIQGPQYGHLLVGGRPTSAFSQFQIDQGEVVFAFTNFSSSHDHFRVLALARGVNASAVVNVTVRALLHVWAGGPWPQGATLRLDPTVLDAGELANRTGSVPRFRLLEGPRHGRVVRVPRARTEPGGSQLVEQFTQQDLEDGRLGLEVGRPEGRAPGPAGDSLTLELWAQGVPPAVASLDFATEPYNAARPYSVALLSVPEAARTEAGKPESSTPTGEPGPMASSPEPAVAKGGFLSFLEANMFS
Procedure: as §1, §2

cynomolgus MCSP D3 [4] = target: T1, cynomolgus MCSP D3; test: SPR Biacore T100, 25 C; TCB captured via anti-human Fab, antigen as analyte
Procedure: (§3) Surface plasmon resonance (SPR) experiments were performed on a Biacore T100 at 25° C. with HBS-EP as running buffer (0.01 M HEPES pH 7.4, 0.15 M NaCl, 3 mM EDTA, 0.005% Surfactant P20, Biacore, Freiburg/Germany).
as §1, §2

[5] = target: T2, human CD3ε stalk-Fc …; test: as above
Procedure: as §3, §1, §2

[6] = target: T3, hu-MCSP(D3 domain)-avi-his; test: as above
Procedure: as §3, §1, §2

murine MCSP D3 = target: T4, murine MCSP D3 (murine, UniProt Q8VHY0 1587-2218, limits assumed); test: SPR Biacore T100, 25 C; TCB captured via anti-human Fab, antigen as analyte; steady state
T4 construct: also called recombinant murine MCSP D3
T4 sequence: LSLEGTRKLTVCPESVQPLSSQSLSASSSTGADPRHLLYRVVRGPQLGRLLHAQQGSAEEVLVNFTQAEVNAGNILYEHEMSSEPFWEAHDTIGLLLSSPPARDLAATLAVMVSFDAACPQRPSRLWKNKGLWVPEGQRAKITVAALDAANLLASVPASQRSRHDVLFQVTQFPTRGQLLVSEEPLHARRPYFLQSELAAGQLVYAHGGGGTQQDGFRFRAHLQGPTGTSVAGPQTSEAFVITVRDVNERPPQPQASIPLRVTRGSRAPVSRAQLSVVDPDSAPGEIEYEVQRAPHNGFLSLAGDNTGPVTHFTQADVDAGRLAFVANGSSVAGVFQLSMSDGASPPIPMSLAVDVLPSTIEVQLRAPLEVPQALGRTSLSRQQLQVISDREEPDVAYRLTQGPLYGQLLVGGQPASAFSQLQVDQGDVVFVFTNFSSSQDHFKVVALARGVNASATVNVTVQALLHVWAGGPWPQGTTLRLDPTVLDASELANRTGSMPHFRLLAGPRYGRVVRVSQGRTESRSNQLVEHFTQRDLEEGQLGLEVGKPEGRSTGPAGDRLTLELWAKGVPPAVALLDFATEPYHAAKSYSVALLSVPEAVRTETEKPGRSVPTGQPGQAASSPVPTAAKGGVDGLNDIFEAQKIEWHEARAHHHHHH
Procedure: as §1, §2

muFcγRIV-aviHis-biotin [7] = target: T5, muFcγRIV-aviHis-biotin (murine, UniProt A0A0B4J1G0 21-203, Biotinylated at the avi tag (tag not included in the letters)); test: SPR Biacore T100, 25 C; receptor captured via anti-Penta His, construct as analyte; kinetic
T5 construct: Captured by anti-Penta His antibody; also called murine FcγRIV; not shown: exact C-terminal limit of the soluble construct
T5 sequence: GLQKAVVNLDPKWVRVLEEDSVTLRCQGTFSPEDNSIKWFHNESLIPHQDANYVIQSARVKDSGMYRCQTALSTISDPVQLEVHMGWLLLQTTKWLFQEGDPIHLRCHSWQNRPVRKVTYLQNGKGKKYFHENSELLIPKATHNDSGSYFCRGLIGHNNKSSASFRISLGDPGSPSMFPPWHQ
Procedure: (§4) For analyzing interaction of different Fc-variants with human FcγRIIIa-V158 and murine FcγRIV direct coupling of around 6,500 resonance units (RU) of the anti-Penta His antibody (Qiagen) is performed on a CM5 chip at pH 5.0 using the standard amine coupling kit (Biacore, Freiburg/Germany). HuFcγRIIIa-V158-K6H6 and muFcγRIV-aviHis-biotin are captured for 60 s at 4 and 10 nM respectively.
(§5) Constructs with different Fc-mutations are passed through the flow cells for 120 s at a concentration of 1000 nM with a flow rate of 30 μl/min. The dissociation is monitored for 220 s. Bulk refractive index differences are corrected for by subtracting the response obtained in a reference flow cell. […] Affinity for human FcγRIIIa-V158 and murine FcγRIV was determined for wild-type Fc using a concentration range from 500-4000 nM.
(§6) The steady state response was used to derive the dissociation constant KD by non-linear curve fitting of the Langmuir binding isotherm. Kinetic constants were derived using the Biacore T100 Evaluation Software (vAA, Biacore AB, Uppsala/Sweden), to fit rate equations for 1:1 Langmuir binding by numerical integration.

HuFcγRIIIa-V158-K6H6 [8] = target: T6, HuFcγRIIIa-V158-K6H6 (human, UniProt P08637 17-208, limits assumed); test: SPR Biacore T100, 25 C; receptor captured via anti-Penta His, construct as analyte; kinetic, one concentration (1000 nM)
T6 construct: His-tagged recombinant receptor captured by anti-Penta His antibody; also called human FcγRIIIa-V158; human FcγRIIIa
Procedure: as §4, §5

HuFcγRIIIa-V158-K6H6 [9] = target: T6, HuFcγRIIIa-V158-K6H6; test: SPR Biacore T100, 25 C; receptor captured via anti-Penta His, construct as analyte; steady state
Procedure: as §4, §5, §6

muFcγRIV-aviHis-biotin [10] = target: T5, muFcγRIV-aviHis-biotin; test: as above
Procedure: as §4, §5, §6

HuFcγRIIIa-V158-K6H6 [11] = target: T6, HuFcγRIIIa-V158-K6H6; test: SPR Biacore T100, 25 C; receptor captured via anti-Penta His, construct as analyte; kinetic, value in brackets not explained
Procedure: as §4, §5, §6

T6 sequence (P08637 17-208 F176V limits assumed): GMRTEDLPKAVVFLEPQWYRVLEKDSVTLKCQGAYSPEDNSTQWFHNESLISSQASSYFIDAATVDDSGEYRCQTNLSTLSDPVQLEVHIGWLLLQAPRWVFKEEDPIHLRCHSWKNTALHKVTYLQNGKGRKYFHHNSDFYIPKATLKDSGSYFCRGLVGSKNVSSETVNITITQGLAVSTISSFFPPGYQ
T2 sequence (chain, as listed by the source mutant limits assumed, chain 1 of 2): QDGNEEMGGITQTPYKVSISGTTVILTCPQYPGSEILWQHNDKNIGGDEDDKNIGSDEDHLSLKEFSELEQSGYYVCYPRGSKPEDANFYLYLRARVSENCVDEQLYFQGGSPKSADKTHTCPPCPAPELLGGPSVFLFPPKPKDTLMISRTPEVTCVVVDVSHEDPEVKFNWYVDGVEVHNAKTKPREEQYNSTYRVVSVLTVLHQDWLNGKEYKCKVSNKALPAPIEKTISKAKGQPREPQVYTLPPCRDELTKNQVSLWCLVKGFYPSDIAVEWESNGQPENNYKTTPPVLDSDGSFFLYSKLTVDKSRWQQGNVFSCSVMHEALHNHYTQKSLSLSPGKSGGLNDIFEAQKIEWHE
T2 sequence (chain, as listed by the source mutant limits assumed, chain 2 of 2): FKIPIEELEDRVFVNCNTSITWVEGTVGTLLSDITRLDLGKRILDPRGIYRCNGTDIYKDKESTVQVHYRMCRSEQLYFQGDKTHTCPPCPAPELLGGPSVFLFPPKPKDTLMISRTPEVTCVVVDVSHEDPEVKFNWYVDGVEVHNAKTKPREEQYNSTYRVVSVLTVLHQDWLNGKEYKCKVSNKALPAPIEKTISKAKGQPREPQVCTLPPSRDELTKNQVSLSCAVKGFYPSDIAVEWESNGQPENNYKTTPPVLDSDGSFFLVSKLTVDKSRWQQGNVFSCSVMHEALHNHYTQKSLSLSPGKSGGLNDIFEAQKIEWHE

B1: MCSP TCB (2+1 Crossfab-IgG P329G LALA inverted) (bispecific antibody)
light 1: not shown
light 2: QAVVTQEPSLTVSPGGTVTLTCGSSTGAVTTSNYANWVQEKPGQAFRGLIGGTNKRAPGTPARFSGSLLGGKAALTLSGAQPEDEAEYYCALWYSNLWVFGGGTKLTVLSSASTKGPSVFPLAPSSKSTSGGTAALGCLVKDYFPEPVTVSWNSGALTSGVHTFPAVLQSSGLYSLSSVVTVPSSSLGTQTYICNVNHKPSNTKVDKKVEPKSC
heavy 1: not shown
heavy 2: QVQLQESGPGLVKPSQTLSLTCTVSGGSITSGYYWNWIRQHPGKGLEWIGYITFDGSNNYNPSLKSRVTISRDTSKNQFSLKLSSVTAADTAVYYCADFDYWGQGTLVTVSSASTKGPSVFPLAPSSKSTSGGTAALGCLVKDYFPEPVTVSWNSGALTSGVHTFPAVLQSSGLYSLSSVVTVPSSSLGTQTYICNVNHKPSNTKVDKKVEPKSCDKTHTCPPCPAPEAAGGPSVFLFPPKPKDTLMISRTPEVTCVVVDVSHEDPEVKFNWYVDGVEVHNAKTKPREEQYNSTYRVVSVLTVLHQDWLNGKEYKCKVSNKALGAPIEKTISKAKGQPREPQVCTLPPSRDELTKNQVSLSCAVKGFYPSDIAVEWESNGQPENNYKTTPPVLDSDGSFFLVSKLTVDKSRWQQGNVFSCSVMHEALHNHYTQKSLSLSPGK
notes: also called MCSP TCB antibody; MCSP CD3 bispecific antibody
B1 gave a t1/2 (cynomolgus MCSP D3 [1]) of 4.38 h, a t1/2 [2] of 2.9 min and a t1/2 [3] of 3.42 h. It also gave a Kd (cynomolgus MCSP D3 [4]) of 0.00012 µM, a Kd [5] of 0.0787 µM and a Kd [6] of 0.00015 µM. The Kd (murine MCSP D3) was 1.57 µM.

B2: “2+1 IgG scFab, wt” (anti-MCSP/anti-huCD3) (bispecific antibody)
chain 1: DIVLTQSPSSLSASLGDRVTISCSASQGIRNYLNWYQQRPDGTVKLLIYYTSSLHSGVPSRFSGSGSGTDYSLTISNLEPEDIATYYCQQYSKLPWTFGGGTKLEIKRTVAAPSVFIFPPSDEQLKSGTASVVCLLNNFYPREAKVQWKVDNALQSGNSQESVTEQDSKDSTYSLSSTLTLSKADYEKHKVYACEVTHQGLSSPVTKSFNRGEC
chain 2: not shown
chain 3: not shown
notes: Wild-type Fc domain; also called Fc-wt; copies: 2 + 1 + 1
Work on B2 yielded a Kd (muFcγRIV-aviHis-biotin [7]) of 0.576 µM, a Kd (HuFcγRIIIa-V158-K6H6 [8]) of 0.6 µM and a Kd (HuFcγRIIIa-V158-K6H6 [9]) of 3.47 µM. For the same binder, the Kd (muFcγRIV-aviHis-biotin [10]) was 1.5 µM and the Kd (HuFcγRIIIa-V158-K6H6 [11]) was 1.2 µM.
